From the Human Domainome abundance scans (Beltran et al. 2025)
± gives the uncertainty stated by the source.

B1: COUP transcription factor 1, residues 83 to 159; numbered along this chain, P10589 (parent)
chain: HIECVVCGDKSSGKHYGQFTCEGCKSFFKRSVRRNLTYTCRANRNCPIDQHHRNQCQYCRLKKCLKVGMRREAVQRG

Variants of: B1
Test: abundance fitness (aPCA) (normalised: wild type 0, dead -1); higher = more abundant; growth selection in yeast, the domain comes from the species named
Settings: Homo sapiens

Abundance fitness, by site and new letter:
F19: S 0.032 ± 0.065, E 0.166 ± 0.069, G -0.53 ± 0.071, Y 0.352 ± 0.15, T -0.094 ± 0.11, R -0.098 ± 0.052, M -0.149 ± 0.1, L -0.129 ± 0.075, D -0.052 ± 0.12, W -0.01 ± 0.06, C -0.216 ± 0.12, V -0.269 ± 0.064, Q 0.125 ± 0.076, I -0.279 ± 0.27, H -0.037 ± 0.12, A -0.101 ± 0.071
Q18: I -0.051 ± 0.18, W -0.459 ± 0.097, Y -0.389 ± 0.26, T -0.137 ± 0.25, L 0.01 ± 0.065, P 0.079 ± 0.073, G -0.061 ± 0.047, V 0.261 ± 0.046, R -0.041 ± 0.053, N -0.345 ± 0.25, K -0.031 ± 0.12, M 0.067 ± 0.12, D 0.08 ± 0.13, S -0.028 ± 0.068, F 0.151 ± 0.21, E 0.143 ± 0.054, C 0.187 ± 0.091, A 0.098 ± 0.057
C24: T -0.885 ± 0.19, W -0.707 ± 0.09, I -0.509 ± 0.28, K -0.697 ± 0.12, M -1.08 ± 0.26, L -0.841 ± 0.11, E -1.1 ± 0.17, Q -1.04 ± 0.23, A -0.841 ± 0.11, R -0.795 ± 0.071, Y -0.319 ± 0.16, P -0.609 ± 0.12, N -0.702 ± 0.35, D -0.335 ± 0.088, S -0.901 ± 0.13
C21: N -0.61 ± 0.19, T -0.742 ± 0.16, H -0.775 ± 0.36, R -0.845 ± 0.095, M -1.01 ± 0.22, S -0.757 ± 0.13, D -1.03 ± 0.26, K -0.818 ± 0.23, G -0.744 ± 0.054, P -0.923 ± 0.18, E -0.929 ± 0.15, Y -0.974 ± 0.4, Q -0.371 ± 0.12, A -0.707 ± 0.098, I -0.999 ± 0.37, V -1.09 ± 0.13, L -0.9 ± 0.15
Y16: Q 0.096 ± 0.094, V -0.151 ± 0.062, A -0.441 ± 0.11, F 0.201 ± 0.14, I -0.297 ± 0.21, M -0.154 ± 0.11, E -0.05 ± 0.081, T -0.274 ± 0.11, R -0.31 ± 0.08, N -0.539 ± 0.2, P -0.355 ± 0.14, D 0.111 ± 0.09, L -0.152 ± 0.089, K -0.209 ± 0.18, W 0.132 ± 0.068, S -0.047 ± 0.07, C 0.074 ± 0.12, G -0.157 ± 0.061
E22: D -0.025 ± 0.1, Y -0.342 ± 0.19, G 0.089 ± 0.047, M 0.01 ± 0.084, R -0.504 ± 0.085, W -0.061 ± 0.071, F -0.226 ± 0.17, L -0.089 ± 0.066, I -0.495 ± 0.21, H -0.504 ± 0.17, V -0.064 ± 0.06, P -0.038 ± 0.077, Q 0.181 ± 0.089
T20: L -0.084 ± 0.05, H -0.541 ± 0.16, V 0.156 ± 0.038, M -0.079 ± 0.076, E -0.116 ± 0.051, D -1.13 ± 0.34, W -0.058 ± 0.051, G -0.242 ± 0.039, Q -0.382 ± 0.12, N -0.191 ± 0.14, K -0.868 ± 0.19, P -0.402 ± 0.087, F -0.106 ± 0.15, I 0.232 ± 0.086, S 0.067 ± 0.046, Y -0.165 ± 0.11, A -0.051 ± 0.042, C 0.163 ± 0.064
G23: R -0.081 ± 0.079, W 0.189 ± 0.088, K -0.044 ± 0.19, T -0.009 ± 0.21, A -0.153 ± 0.14, Q 0.031 ± 0.12, C 0.001 ± 0.36, D 0.418 ± 0.14, L -0.544 ± 0.36, Y 0.152 ± 0.45, S -0.174 ± 0.23, F 0.044 ± 0.43, V -0.338 ± 0.11, H 0.287 ± 0.17
G17: Q 0.044 ± 0.091, V -0.421 ± 0.069, L -0.437 ± 0.086, P -0.572 ± 0.17, K -0.452 ± 0.17, D -0.072 ± 0.067, C -0.274 ± 0.16, T -0.319 ± 0.16, N -0.165 ± 0.21, A -0.358 ± 0.071, I -0.515 ± 0.28, Y -0.396 ± 0.36, S -0.191 ± 0.067, M -0.703 ± 0.42, E -0.156 ± 0.075, H -0.459 ± 0.24, R -0.421 ± 0.07
K25: G 0.064 ± 0.034, E 0.183 ± 0.047, C 0.087 ± 0.074, H 0.283 ± 0.1, A 0.09 ± 0.043, L -0.031 ± 0.058, F 0.168 ± 0.086, D 0.183 ± 0.075
H15: Q -0.052 ± 0.17, Y -0.144 ± 0.18, K -0.857 ± 0.5, T -0.28 ± 0.25, L 0.001 ± 0.14, M 0.548 ± 0.39, P 0.125 ± 0.16, V -0.135 ± 0.12, S -0.212 ± 0.12, G -0.101 ± 0.093, R -0.364 ± 0.14, W 0.196 ± 0.14, N 0.148 ± 0.24
